Measurements as given in patent US20030054004A1 (published 2003).
One block for each molecule: values may come before it.

Key:
[1] = molecular target: human lymphotoxin (TNFβ) (human) (UniProt P01374); test: cell-based or functional assay
recombinant human TNFα = recombinant human TNFα (human, UniProt P01375 77-233); test: cell-based or functional assay
Sequence of recombinant human TNFα (P01375 77-233): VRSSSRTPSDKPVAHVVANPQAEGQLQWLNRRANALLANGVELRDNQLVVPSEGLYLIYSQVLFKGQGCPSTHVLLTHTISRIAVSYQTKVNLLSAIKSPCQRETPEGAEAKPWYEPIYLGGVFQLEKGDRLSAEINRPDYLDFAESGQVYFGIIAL

Sequence of human lymphotoxin (TNFβ) (human) (P01374 35-205 limits assumed): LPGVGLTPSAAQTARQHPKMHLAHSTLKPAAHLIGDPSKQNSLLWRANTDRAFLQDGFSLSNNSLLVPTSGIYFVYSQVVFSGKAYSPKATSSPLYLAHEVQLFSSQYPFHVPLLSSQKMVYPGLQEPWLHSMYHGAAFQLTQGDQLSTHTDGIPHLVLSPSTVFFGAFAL

Molecule: p75P-sf2 (p75 extracellular domain lacking the C-terminal 53 amino acids, fused to the IgG1 heavy chain) (from UniProt P20333 23-204) (Fc fusion)
concentration to half-inhibit human TNFβ at 2 pM, WEHI 164 cytotoxicity [1]: 31 pM

IL-6 in supernatant of FS-4 fibroblasts; TNF 0.3 ng/ml, 4 µg/ml antibody (recombinant human TNFα): 1.6 ng/mL | IL-6 in supernatant of FS-4 fibroblasts; TNF 1.5 ng/ml, 4 µg/ml antibody (recombinant human TNFα): 1.96 ng/mL | IL-6 in supernatant of FS-4 fibroblasts; TNF 7.5 ng/ml, 4 µg/ml antibody (recombinant human TNFα): 2.16 ng/mL
B1: chimeric mouse/human IgG1 anti-platelet mAb (7E3) (antibody, INN chains, looked up, V domains shown)
VH: EVQLQQSGTVLARPGASVKMSCEASGYTFTNYWMHWVKQRPGQGLEWIGAIYPGNSDTSYIQKFKGKAKLTAVTSTTSVYMELSSLTNEDSAVYYCTLYDGYYVFAYWGQGTLVTVSA
VL: EIVLTQSPVTLSVTPGDSVSLSCRASRDISNNLHWFQQTSHESPRLLIKYASQSMSGIPSRFSGSGSGTDFTLSINSVETEDFGMYFCQQTNSWPYTFGGGTKLEIK
modifications: IgG1

B2: p55-sf3 (p55 / IgG1 heavy chain fusion lacking the CH1 domain) (Fc fusion, human, not shown: a dimerising Fc or GST)
heavy: QVCPQGKYIHPQNNSICCTKCHKGTYLYNDCPGPGQDTDCRECESGSFTASENHLRHCLSCSKCRKEMGQVEISSCTVDRDTVCGCRKNQYRHYWSENLFQCFNCSLCLNGTVHLSCQEKQNTVCTCHAGFFLRENECVSCSNCKKSLECTKLCLPQIGTLVTVSS
IC50: concentration of fusion protein required to inhibit 2 ng/ml (39.2 pM) TNFα by 50%, WEHI 164 cytotoxicity (recombinant human TNFα): 100 pM

B3: p75P-sf3 (as p75P-sf2 but lacking the CH1 domain) (Fc fusion, human, not shown: a dimerising Fc or GST)
heavy: QLPAQVAFTPYAPEPGSTCRLREYYDQTAQMCCSKCSPGQHAKVFCTKTSDTVCDSCEDSTYTQLWNWVPECLSCGSRCSSDQVETQACTREQNRICTCRPGWYCALSKQEGCRLCAPLRKCRPGFGVARPGTETSDVVCKPCAPGTFSNTTSSTDICRPHQICNVVAIPGNASMDAVCTSTSGTLVTVSS
IC50: concentration of fusion protein required to inhibit 2 ng/ml (39.2 pM) TNFα by 50%, WEHI 164 cytotoxicity (recombinant human TNFα): 130 pM
